Measurements reported in article PMC6839023, “Structure of the UspA1 protein fragment from Moraxella catarrhalis responsible for C3d binding” (Journal of Structural Biology, 2019).

Target: the molecule itself
Experiment: crystal structure; UspA1 299-452 (2.4 mg/ml) mixed 1:3 with C3d (10.7 mg/ml); 1,6-hexanediol, 0.1 M Tris-HCl pH 8.5, 20 mM MgCl2; 2.5 Å; the crystals held only UspA1 299-452

B1: UspA1^299–452 (ubiquitous surface protein A1 fragment, residues 299–452) (domain or fragment)
chain: not shown
modifications: fluorescently labelled with the Monolith NT His-Tag Labelling Kit RED-tris-NTA (thermophoresis only)
notes: UspA1 of Moraxella catarrhalis strain ATCC 25238 (BC5), GenBank AAD43465, residues 299-452: part of the long neck (299-336) and of the stalk (337-452); Cloned NdeI/HindIII into pET22b(+); No thrombin cleavage is described; Trimer in the crystal; also called UspA1 fragment (amino acids 299–452); UspA^299–452; source: E. coli BL21(DE3), purified (NiNTA, Superdex 200)
- stoichiometry N: 3
